Drawing on patent publication US20230399394A1 (SUNSHINE GUOJIAN PHARMACEUTICAL SHANGHAI, published 2023), this text covers OD450 for 1 molecule.

Experiment [1] has as its target T1, Pep5 (human, N-terminal biotin).
T1 construct: Synthetic 20-mer of human IL-33
T1 peptide: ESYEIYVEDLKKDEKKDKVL
The experiment can be described thus: ELISA, biotinylated peptide on streptavidin plate, antibody 10 µg/mL, well 1. How it is done: (§1) To determine the binding activity of antibody to each polypeptide fragment, the ELISA plate was pre-coated by biotin-avidin (SA) which was diluted in coating solution (50 mM carbonate coating buffer, pH 9.6) to 2 μg/ml at 4° C. overnight. The plate was washed with PBST for 3 times, and then blocked with 2% BSA prepared in PBS at room temperature for 2 h with 200 μL/well. The plate was washed once with PBST, and 864F3 and 874F7 with final concentrations of 10 μg/mL were added at 100 μL/well, respectively, and the plate was incubated at room temperature for 1 h. The plate was washed with PBST for 3 times, and the goat anti-mouse IgG labeled by HRP was added and placed at 37° C. for 30 min. After washing the plate with PBST for 3 times, the plate was patted on the absorbent paper to remove residual droplets as far as possible. 100 μl TMB developing solution was added to each well, and the plate was placed at room temperature (20±5° C.) for 5 minutes away from light; 50 μl 2M H₂SO₄ terminating solution was added to each well to terminate the substrate reaction. OD values were read at 450 nm on the microplate reader to analyze the binding ability of the antibody to each polypeptide fragment. The experimental results are shown in […]
Background: ELISA stands for enzyme-linked immunosorbent assay.

Experiment [2] concerns the target T2, Pep16 (human, N-terminal biotin).
T2 construct: Synthetic 20-mer of human IL-33
T2 peptide: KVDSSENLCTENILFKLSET
The description is as above. As to the method:
as §1

Experiment [3] has as its target T3, Pep7 (human, N-terminal biotin).
T3 construct: Synthetic 20-mer of human IL-33
T3 peptide: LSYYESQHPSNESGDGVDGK
The description is as above. How it is done:
as §1

The target in experiment [4] is T4, Pep11 (human, N-terminal biotin).
T4 construct: Synthetic 20-mer of human IL-33
T4 peptide: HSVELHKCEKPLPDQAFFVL
The experiment is described as above. As to the method:
as §1

The next experiment concerns the target T5, Pep12 (human, N-terminal biotin).
T5 construct: Synthetic 20-mer of human IL-33
T5 peptide: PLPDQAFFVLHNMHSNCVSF
In words: ELISA, biotinylated peptide on streptavidin plate, antibody 10 µg/mL, well 2. How it is done: as §1

A further experiment addresses T6, Pep2 (human, N-terminal biotin).
T6 construct: Synthetic 20-mer of human IL-33
T6 peptide: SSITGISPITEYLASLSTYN
The description is as above. How it is done:
as §1

For experiment [5], the target named is T1, Pep5. The experiment is described as above. As to the method: as §1
For a further experiment, the target named is T7, Pep9 (human, N-terminal biotin).
T7 construct: Synthetic 20-mer of human IL-33
T7 peptide: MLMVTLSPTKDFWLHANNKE
The experiment is described as above. How it is done: as §1

Experiment [6] addresses T2, Pep16. Described as above. As to the method:
as §1

Experiment [7] addresses T3, Pep7. The experiment is described as above. How it is done: as §1
The next experiment concerns the target T8, Pep6 (human, N-terminal biotin).
T8 construct: Synthetic 20-mer of human IL-33
T8 peptide: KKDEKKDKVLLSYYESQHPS
The description is as above. As to the method:
as §1

Another experiment deals with T9, Pep4 (human, N-terminal biotin).
T9 construct: Synthetic 20-mer of human IL-33
T9 peptide: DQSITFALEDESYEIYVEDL
Described as above. How it is done:
as §1

In another experiment the target is T10, Pep13 (human, N-terminal biotin).
T10 construct: Synthetic 20-mer of human IL-33
T10 peptide: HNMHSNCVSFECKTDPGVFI
The description is as above. As to the method: as §1

In a further experiment the target is T11, Pep10 (human, N-terminal biotin).
T11 construct: Synthetic 20-mer of human IL-33
T11 peptide: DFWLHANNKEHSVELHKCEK
The experiment is described as above. As to the method:
as §1

The target in a further experiment is T12, Pep15 (human, N-terminal biotin).
T12 construct: Synthetic 20-mer of human IL-33
T12 peptide: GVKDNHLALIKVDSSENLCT
The experiment is described as above. How it is done:
as §1

In another experiment the target is T13, Pep3 (human, N-terminal biotin).
T13 construct: Synthetic 20-mer of human IL-33
T13 peptide: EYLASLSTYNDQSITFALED
Described as above. How it is done: as §1

In another experiment the target is T14, Pep14 (human, N-terminal biotin).
T14 construct: Synthetic 20-mer of human IL-33
T14 peptide: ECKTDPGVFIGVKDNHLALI
The description is as above. How it is done:
as §1

The target in the next experiment is T15, Pep1 (human, N-terminal biotin).
T15 construct: Synthetic 20-mer of human IL-33
T15 peptide: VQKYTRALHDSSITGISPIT
Described as above. How it is done: as §1

Experiment [8] addresses T4, Pep11. The experiment is described as above. How it is done: as §1
The target of another experiment is T16, Pep8 (human, N-terminal biotin).
T16 construct: Synthetic 20-mer of human IL-33
T16 peptide: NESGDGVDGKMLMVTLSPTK
Described as above. How it is done:
as §1

B1: 874F7 (antibody, V domains shown)
VH: QVQLKESGPGLVAPSHSLSITCNVSGFSLSKYGVHWIRQIPGRGLDWLGVLRAGGSTGYNSALMSRLSISKDSSKSQVFLKMNDLRTDDTAVYFCVRDHYYYSSYGGFVYWGQGTLVTVSA
VL: DIQMTQSPASQSASLGESVTITCLASQTIGAWLAWYRQQPGKSPQLLIYAATRLADGVPSRFSGSGSGTEFSFKINNLQAEDFVSYYCQQLDSSPYTFGGGTRLEM
notes: Murine hybridoma antibody purified on Protein G; also called murine antibody 874F7
Take B1: the OD450 with Pep5 [1] came out at 0.05 OD450; in the experiment with Pep16 [2], 0.049 OD450; with Pep7 [3], 0.055 OD450; with Pep11 [4] it was 0.056 OD450; with Pep12 it was 0.053 OD450; with Pep2, 0.05 OD450. Further, the OD450 in the experiment with Pep5 [5] worked out at 0.049 OD450; in the experiment with Pep9, 0.061 OD450; in the experiment with Pep16 [6], 0.049 OD450; with Pep7 [7], 0.051 OD450; in the experiment with Pep6, 1.03 OD450; with Pep4, 0.048 OD450. The OD450 worked out at 0.053 OD450 in the experiment with Pep13; 0.052 OD450 in the experiment with Pep10; 0.052 OD450 with Pep15; 0.048 OD450 with Pep3; 0.053 OD450 in the experiment with Pep14; 0.061 OD450 in the experiment with Pep1. For the same molecule, the OD450 with Pep11 [8] is 0.053 OD450; in the experiment with Pep8, 0.047 OD450.
